Laboratory results as given in patent publication US9290794B2, “Mutant protease biosensors with enhanced detection characteristics” (PROMEGA CORPORATION, priority 2010, dated 2016).

System: Caspase-8
Experiment: Caspase-8 biosensors transfected into HeLa cells, induction with TRAIL
Type: cell-based
Settings: 1 μg/mL TRAIL, 37° C.
Source text: To evaluate whether the mutant thermostable luciferase biosensors of the present invention can be used to detect Caspase-8 activity in cells, biosensors were generated that contained the Caspase-8 cleavage site, LETDG (SEQ ID NO:15). Two different biosensors, TL-CP358-Caspase-8 and TL-CP233-Caspase-8 were used. As controls, the firefly (Photinus pyralis; Ppy) luciferase biosensors FF-CP234-Caspase-8 (M/Ppy residues 234-544/LETDG/Ppy residues 4-230/V), FF-CP359-Caspase-8 (M/Ppy residues 359-544/LETDG/Ppy residues 4-355/V), and TL-CP358-DEVD.
All biosensors were transfected into HeLa cells. Cells were plated at a (10,000/well) into a 96-well tissue culture plate. […]
After overnight incubation, the media was removed from the cells and replaced with CO2 Independent Media (Invitrogen Cat. No. 18045088) with 2 mM Luciferin EF (Promega Cat. No. E6551). Cells were pre-equilibrated with Luciferin EF for 2 hrs in a Varioskan luminometer with bioluminescence readings taken every 20 min. […] The cells were again incubated at 37° C. in a Varioskan luminometer for 500+ min with bioluminescence measured every 20 min.
FIGS. 5 and 7 identify the kinetic profiles of Caspase 8 activation by TRAIL over time at 37° C. […] Fold induction of activation was calculated by dividing the signal of samples with TRAIL over the signals without trail at a given time point. […]

B1: TL-CP358-Caspase 8: TL Ppe fragments 358-543 and 4-354 with caspase-8 site linker … (SEQ ID NOs:59 and 60) (protein)
chain: MPGSTGKIVPLHAVKVVDPTTGKILGPNEPGELYFKGPMIMKGYYNNEEATKAIIDNDGWLRSGDIAYYDNDGHFYIVDRLKSLIKYKGYQVAPAEIEGILLQHPYIVDAGVTGIPDEAAGELPAAGVVVQTGKYLNEQIVQDYVASQVSTAKWLRGGVKFLDEIPKGSTGKIDRKVLRQMLEKHTNGSSLETDGSSGKNILYGPEPFYPLEDGTAGEQMFDALSRYAAIPGCIALTNAHTKENVLYEEFLKLSCRLAESFKKYGLKQNDTIAVCSENSLQFFLPVIASLYLGIIVAPVNDKYIERELIHSLGIVKPRIVFCSKNTFQKVLNVKSKLKSIETIIILDLNEDLGGYQCLNNFISQNSDSNLDVKKFKPYSFNRDDQVASIMFSSGTTGLPKGVMLTHKNIVARFSIAKDPTFGNAINPTSAILTVIPFHHGFGMMTTLGYFTCGFRVVLMHTFEEKLFLQSLQDYKVESTLLVPTLMAFLAKSALVEKYDLSHLKEIASGGAPLSKEIGEMVKKRFKLNFVRQGYGLTETTSAVLITPKGV
detection of Caspase 8 activation by TRAIL: can detect Caspase 8 activation by TRAIL
